Article PMC4591933 (Cancer research, 2008)

Target: EGFR-NLuc (human EGF receptor fused to the N-terminal fragment of firefly luciferase) (human, UniProt P00533 25-1210)
Assay: split reporter

fold induction of reconstituted luciferase over control, 15 min after EGF: 2.5 fold over control
B1: Shc-CLuc (human p52Shc fused to the C-terminal fragment of firefly luciferase) (natural protein, UniProt P29353-2 1-473, looked up)
chain: MNKLSGGGGRRTRVEGGQLGGEEWTRHGSFVNKPTRGWLHPNDKVMGPGVSYLVRYMGCVEVLQSMRALDFNTRTQVTREAISLVCEAVPGAKGATRRRKPCSRPLSSILGRSNLKFAGMPITLTVSTSSLNLMAADCKQIIANHHMQSISFASGGDPDTAEYVAYVAKDPVNQRACHILECPEGLAQDVISTIGQAFELRFKQYLRNPPKLVTPHDRMAGFDGSAWDEEEEEPPDHQYYNDFPGKEPPLGGVVDMRLREGAAPGAARPTAPNAQTPSHLGATLPVGQPVGGDPEVRKQMPPPPPCPGRELFDDPSYVNVQNLDKARQAVGGAGPPNPAINGSAPRDLFDMKPFEDALRVPPPPQSVSMAEQLRGEPWFHGKLSRREAEALLQLNGDFLVRESTTTPGQYVLTGLQSGQPKHLLLVDPEGVVRTKDHRFESVSHLISYHMDNHLPIISAGSELCLQQPVERKL
